Data taken from patent US20200255504A1 (VIB VZW, published 2020).
Where “and” joins values, the source holds several entries; their conditions need not be identical. Identical values can stand only once.

Key:
human serum albumin [1] = target: T1, human serum albumin (human, UniProt P02768 25-609); experiment: affinity determination, method not stated
T1 construct: also called HSA; human albumin

human serum albumin [2] = target: T1, human serum albumin; experiment: BLI off-rate screen, periplasmic extract 1/4 in PBS, HSA on AR2G sensors
Protocol: (§1) Off-rate was analyzed by BioLayer Interferometry on an Octet RED96 (Fortebio) instrument using human serum albumin (HSA) coated Octet AR2G sensors (HSA was coupled at 20 μg/mL at pH 5.0 as detailed in Fortebio Technical Note 26).

mouse serum albumin [3] = target: T2, mouse serum albumin (mouse, UniProt P07724 25-608); experiment: BLI Octet RED96, albumin on AR2G sensors, VHH 100-1.5 nM
T2 construct: also called mouse albumin

[4] = target: T3, cynomolgus monkey serum albumin (cynomolgus monkey); experiment: as above
T3 construct: also called cyno albumin

human serum albumin [5] = target: T1, human serum albumin; experiment: as above
rat serum albumin [6] = target: T4, rat serum albumin (rat, UniProt P02770 25-608); experiment: as above
T4 construct: also called rat albumin

human serum albumin [7] = target: T1, human serum albumin; experiment: BLI off-rate screen, periplasmic extract 1/4 in 75 mM NaAc pH 5.5, HSA on AR2G sensors
Protocol: as §1

horse serum albumin = target: T5, horse serum albumin (horse, UniProt P35747 25-607); experiment: BLI Octet RED96, albumin on AR2G sensors, VHH 800-12.5 nM, 1:1 model
T5 construct: also called horse SA; horse albumin
Protocol: (§2) 10 mg of lyophilized cat, dog, horse or pig serum (HSA) albumin (Sigma) was resuspended in 1 mL of PBS (10 μg/μL). This was used at 20 μg/mL in the “Ligand scouting immobilization conditions” protocol for AR2G Biosensors as detailed in Fortebio Technical Note 26, in conjunction with a Fortebio Octet Red96 machine. Only the pH 5.0 and pH 4.0 condition were tested.
(§3) After data acquisition, the profiles were analyzed using the Octet Data analysis software v9.0.

dog serum albumin = target: T6, dog serum albumin (dog, UniProt P49822 25-608); experiment: as above
T6 construct: also called dog SA; dog albumin
Protocol: as §2, §3

bovine serum albumin = target: T7, bovine serum albumin (bovine, UniProt P02769 25-607); experiment: BLI Octet RED96, albumin on AR2G sensors
T7 construct: also called bovine albumin

pig serum albumin = target: T8, pig serum albumin (pig, UniProt P08835 25-607); experiment: BLI Octet RED96, albumin on AR2G sensors
T8 construct: also called pig SA
Protocol: as §2, §3

cat serum albumin = target: T9, cat serum albumin (cat, UniProt P49064 25-608); experiment: BLI Octet RED96, albumin on AR2G sensors
T9 construct: also called cat SA
Protocol: as §2, §3

rabbit serum albumin = target: T10, rabbit serum albumin (rabbit, UniProt P49065 25-608); experiment: BLI Octet RED96, albumin on AR2G sensors, VHH 1600-25 nM
T10 construct: also called rabbit albumin

human serum albumin [8] = target: T1, human serum albumin; experiment: BLI Octet RED96, HSA on AR2G sensors, VHH 100-1.5 nM (column head says nM; values look like M)
human serum albumin [9] = target: T1, human serum albumin; experiment: BLI Octet RED96, HSA on AR2G sensors, VHH 100-1.5 nM
mouse serum albumin [10] = target: T2, mouse serum albumin; experiment: BLI Octet RED96, mouse albumin, reference SA1_S30K
rat serum albumin [11] = target: T4, rat serum albumin; experiment: BLI Octet RED96, rat albumin, reference SA1_S30K
[12] = target: T3, cynomolgus monkey serum albumin; experiment: BLI Octet RED96, albumin on AR2G sensors (as in Example 4)
human serum albumin [13] = target: T1, human serum albumin; experiment: as above
human serum albumin [14] = target: T1, human serum albumin; experiment: BLI Octet RED96, HSA on AR2G sensors

B1: VHH-GFP-SA1_S30K (bispecific antibody)
chain: QVQLQESGGALVQPGGSLRLSCAASGFPVNRYSMRWYRQAPGKEREWVAGMSSAGDRSSYEDSVKGRFTISRDDARNTVYLQMNSLKPEDTAVYYCNVNVGFEYWGQGTQVTVSSGGSGGSGGSGGSGGSGGSGGSGGSGGSGGSGGSGGSGGSGGSGGSGGSGGSGGSGGSGGSQVQLQESGGGLVQAGGSLRLSCAASGRNIKEYVMGWFRQAPGKEREFVAAISWSAGNIYYADSVKGRFTISRDNAKNTVHLQMNTLRPEDTAVYYCAAGRYSAWYVAAYEYDYWGQGTQVTVSS
notes: also called VHH-GFP-SA26
**Q.** With B1 as the binder, how does the Kd (human serum albumin [1]) read?
**A.** The Kd was 5 nM.

B2: SA1 VHH (VHH)
VHH: QVQLQESGGGLVQAGGSLRLSCAASGRNISEYVMGWFRQAPGKEREFVAAISWSAGNIYYADSVKGRFTISRDNAKNTVHLQMNTLRPEDTAVYYCAAGRYSAWYVAAYEYDYWGQGTQVTVSS
notes: From WO2014/037419; made in E. coli WK6 periplasm; also called non-mutated SA1; original SA1 VHH
**Q.** What does the source list for B2?
**A.** koff (human serum albumin [2]): 0.00222 s⁻¹ and 0.00199 s⁻¹; Kd (mouse serum albumin [3]): 0.66 nM; Kd [4]: 0.37 nM; Kd (human serum albumin [5]): 0.9 nM; Kd (rat serum albumin [6]): 0.45 nM; koff (human serum albumin [7]): 0.000972 s⁻¹ and 0.00119 s⁻¹; Kd (horse serum albumin): 121 nM; koff (horse serum albumin): 0.00483 s⁻¹; kon (horse serum albumin): 52100 M⁻¹ s⁻¹; Kd (dog serum albumin): 126 nM; koff (dog serum albumin): 0.0158 s⁻¹; kon (dog serum albumin): 123000 M⁻¹ s⁻¹; binding result (bovine serum albumin): no binding; binding result (pig serum albumin): no binding (tested: 800 nM (highest concentration)); binding result (cat serum albumin): no binding (tested: 800 nM (highest concentration)); Kd (rabbit serum albumin): 600 nM; Kd (human serum albumin [8]): 1.15 nM; koff (human serum albumin [9]): 0.00022 s⁻¹; fold lower affinity than SA1_S30K (mouse serum albumin [10]): 2 fold; fold lower affinity than SA1_S30K (rat serum albumin [11]): 20 fold

B3: SA1-biotinylated (VHH)
VHH: QVQLQESGGGLVQAGGSLRLSCAASGRNISEYVMGWFRQAPGKEREFVAAISWSAGNIYYADSVKGRFTISRDNAKNTVHLQMNTLRPEDTAVYYCAAGRYSAWYVAAYEYDYWGQGTQVTVSS
modifications: labeled with NHS-PEG4-Biotin at a 5/1 molar ratio of biotin/VHH; labelled residues not determined
notes: also called biotinylated SA1
**Q.** For B3, which Kd (human serum albumin [8]) is on record?
**A.** The Kd was 1.97 nM.

**Q.** And the koff (human serum albumin [9])?
**A.** Its koff is 0.000166 s⁻¹.

B4: SA1_S30K humanized variant 3 VHH (VHH)
VHH: EVQLQESGGGLVQPGGSLRLSCAASGRNIKEYVMGWFRQAPGKEREFVAAISWSAGNIYYADSVKGRFTISRDNSKNTVHLQMNSLRPEDTAVYYCAAGRYSAWYVAAYEYDYWGQGTLVTVSS
notes: also called h3
**Q.** Which results are given for B4?
**A.** Kd [12]: 0.29 nM; Kd (human serum albumin [13]): 1.64 nM

B5: SA1_S30K humanized variant 1 VHH (VHH)
VHH: EVQLQESGGGLVQPGGSLRLSCAASGRNIKEYVMGWFRQAPGKEREFVAAISWSAGNIYYADSVKGRFTISRDNSKNTVHLQMNTLRPEDTAVYYCAAGRYSAWYVAAYEYDYWGQGTLVTVSS
notes: also called h1
**Q.** For B5, which Kd [12] is on record?
**A.** The Kd was 0.36 nM.

**Q.** And the Kd (human serum albumin [13])?
**A.** The Kd was 1.33 nM.

B6: SA1_S30K humanized variant 4 VHH (VHH)
VHH: EVQLQESGGGLVQPGGSLRLSCAASGRNIKEYVMGWFRQAPGKEREFVAAISWSAGNIYYADSVKGRFTISRDNSKNTVYLQMNSLRPEDTAVYYCAAGRYSAWYVAAYEYDYWGQGTLVTVSS
notes: also called h4
**Q.** With B6 as the binder, how does the Kd [12] read?
**A.** The Kd was 0.32 nM.

**Q.** And the Kd (human serum albumin [13])?
**A.** The Kd was 2.11 nM.

B7: SA1_S30K VHH (VHH)
VHH: QVQLQESGGGLVQAGGSLRLSCAASGRNIKEYVMGWFRQAPGKEREFVAAISWSAGNIYYADSVKGRFTISRDNAKNTVHLQMNTLRPEDTAVYYCAAGRYSAWYVAAYEYDYWGQGTQVTVSS
notes: Made in E. coli WK6 periplasm; also called SA1_S3OK; SA1_S30K mutant variant
**Q.** How did the Response (human serum albumin [2]) turn out when B7 was run?
**A.** Its Response is 0.25 nm.

**Q.** What about the koff (human serum albumin [2]) of the same binder?
**A.** Its koff is 0.00141 s⁻¹.

**Q.** And the Kd (mouse serum albumin [3])?
**A.** Its Kd is 0.29 nM.

**Q.** And the Kd [4]?
**A.** Its Kd is 0.38 nM.

**Q.** What about the Kd (human serum albumin [5]) of the same binder?
**A.** Its Kd is 0.91 nM.

**Q.** And the Kd (rat serum albumin [6])?
**A.** Its Kd is 0.02 nM.

**Q.** What about the Response (human serum albumin [7]) of the same binder?
**A.** Its Response is 0.438 nm.

**Q.** What about the koff (human serum albumin [7]) of the same binder?
**A.** The koff was 0.00181 s⁻¹.

**Q.** What about the Kd (horse serum albumin) of the same binder?
**A.** Its Kd is 201 nM.

**Q.** What about the koff (horse serum albumin) of the same binder?
**A.** Its koff is 0.0103 s⁻¹.

**Q.** And the kon (horse serum albumin)?
**A.** The kon was 59100 M⁻¹ s⁻¹.

**Q.** What about the Kd (dog serum albumin) of the same binder?
**A.** Its Kd is 160 nM.

**Q.** And the koff (dog serum albumin)?
**A.** The koff was 0.0181 s⁻¹.

**Q.** What about the kon (dog serum albumin) of the same binder?
**A.** Its kon is 166000 M⁻¹ s⁻¹.

**Q.** And the Kd [12]?
**A.** The Kd was 0.57 nM.

**Q.** And the Kd (human serum albumin [13])?
**A.** Its Kd is 1.28 nM.

**Q.** Does B7 bind (bovine serum albumin)?
**A.** Result: no binding

**Q.** Does B7 bind (pig serum albumin)?
**A.** Result: no binding (tested: 800 nM (highest concentration))

**Q.** Does B7 bind (cat serum albumin)?
**A.** Result: no binding (tested: 800 nM (highest concentration))

**Q.** And the Kd (human serum albumin [8])?
**A.** Its Kd is 0.825 nM.

**Q.** And the koff (human serum albumin [9])?
**A.** Its koff is 0.000203 s⁻¹.

B8: SA1_S30K-biotinylated (VHH)
VHH: QVQLQESGGGLVQAGGSLRLSCAASGRNIKEYVMGWFRQAPGKEREFVAAISWSAGNIYYADSVKGRFTISRDNAKNTVHLQMNTLRPEDTAVYYCAAGRYSAWYVAAYEYDYWGQGTQVTVSS
modifications: labeled with NHS-PEG4-Biotin at a 5/1 molar ratio of biotin/VHH; the filing says the higher signal is likely related to the additional lysine at position 30; labelled residues not determined
notes: also called biotinylated SA1_S30K VHH
**Q.** For B8, which “fold change in KD or kon or koff against the unbiotinylated VHH” value (human serum albumin [14]) is on record?
**A.** The value was < 2 fold.

**Q.** And the Kd (human serum albumin [8])?
**A.** Its Kd is 1.49 nM.

**Q.** What about the koff (human serum albumin [9]) of the same binder?
**A.** The koff was 0.000187 s⁻¹.

B9: SA1_S30K humanized variant 2 VHH (VHH)
VHH: EVQLQESGGGLVQPGGSLRLSCAASGRNIKEYVMGWFRQAPGKEREFVAAISWSAGNIYYADSVKGRFTISRDNSKNTVYLQMNTLRPEDTAVYYCAAGRYSAWYVAAYEYDYWGQGTLVTVSS
notes: also called h2
**Q.** Which Kd [12] does the source give for B9 here?
**A.** Its Kd is 0.5 nM.

**Q.** And the Kd (human serum albumin [13])?
**A.** Its Kd is 1.53 nM.
